Reference: PMC8536467 (Molecular cell, 2021)
Where no end group is shown, it is not given here. Me2 = dimethyl (dimethylated lysine)

Target: Human 53BP1-Tudor (residues 1484-1603) (human, UniProt Q12888 1484-1603)
Experiment: ITC

Chain of Human 53BP1-Tudor (residues 1484-1603) (Q12888 1484-1603): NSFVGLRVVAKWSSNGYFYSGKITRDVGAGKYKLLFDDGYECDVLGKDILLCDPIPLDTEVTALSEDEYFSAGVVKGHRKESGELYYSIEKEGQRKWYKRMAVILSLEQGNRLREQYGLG

Row | Kd [µM] | Binder
1 | 52 | SSHLK(Me2)SKKGQ (peptide, UniProt P04637 366-375, looked up) [p53K370me2 peptide (residues 366-375)]
2 | 8 | TSRHKK(Me2)LMFK (peptide, UniProt P04637 377-386, looked up) [p53K382me2 peptide (residues 377-386)]
